Patent publication US20200317768A1 (published 2020)
Numbering of substitutions follows the chain as printed.

Assays:
Assay in all cases: SPR (BIACORE), antibody captured, FcγR as analyte, 25°C
[1] = biological target: T1, human FcγRIIIaV extracellular domain, His-tagged (human, UniProt P08637 17-208)
T1 construct: also called human FcgRIIIaV; not shown: His-tag added to the C-terminus
Procedure: (§1) The kinetic analysis of interactions between these antibodies and FcγR was carried out using BIACORE® T200 or BIACORE® 4000 (GE Healthcare). HBS-EP+ (GE Healthcare) was used as the running buffer, and the measurement temperature was set to 25° C. A chip produced by immobilizing Protein A. Protein A/G or mouse anti-human IgG kappa light chain (BD Biosciences) onto a Series S Sensor Chip CM4 or CM5 (GE Healthcare) by the amine-coupling method was used. […] After the measurement, the antibody captured on the chip was washed off by allowing reaction with 10 mM glycine-HCl, pH1.5 and 25 mM NaOH so that the chip was regenerated and used repeatedly. The sensorgrams obtained as measurement results were analyzed by the 1:1 Langmuir binding model using the BIACORE® Evaluation Software to calculate the binding rate constant ka (L/mol/s) and dissociation rate constant kd (l/s), and the dissociation constant KD (mol/L) was calculated from these values. […] Regarding such interactions, KD values were calculated using the following 1:1 binding model described in BIACORE® T100 Software Handbook BR1006-48 Edition AE.
(§2) The behavior of interacting molecules according to the 1:1 binding model on BIACORE® can be described by Equation 1: Req=C·R max/(KD+C)+RI, wherein, Req is a plot of steady-state binding levels to analyte concentration. C is concentration, RI is bulk refractive index contribution in the sample, and Rmax is analyte binding capacity of the surface. When this equation is rearranged, KD can be expressed as Equation 2: KD=C·Rmax/(Req−RI)−C. KD can be calculated by substituting the values of Rmax, RI, and C into Equation 1 or Equation 2. From the current measurement conditions, RI=0, C=2 μmol/L can be used.

[2] = biological target: T2, cynomolgus monkey FcγRIIa3 extracellular domain, His-tagged (cynomolgus monkey)
T2 construct: also called cyno FcgRIIa3; cynoFcγRIIa3; not shown: His-tag added to the C-terminus
T2 chain: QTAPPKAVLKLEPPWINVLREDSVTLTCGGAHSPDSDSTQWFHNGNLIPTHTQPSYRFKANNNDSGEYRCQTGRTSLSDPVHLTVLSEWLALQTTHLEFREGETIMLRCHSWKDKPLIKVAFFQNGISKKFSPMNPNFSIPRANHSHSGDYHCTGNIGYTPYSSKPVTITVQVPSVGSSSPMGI
Procedure: as §1, §2

[3] = biological target: T3, cynomolgus monkey FcγRIIa1 extracellular domain, His-tagged (cynomolgus monkey)
T3 construct: also called cyno FcgRIIa1; cynoFcγRIIa1; not shown: His-tag added to the C-terminus
T3 chain: T2 chain with T95P, A121T, S128A, P133H, N135D
Procedure: as §1, §2

[4] = biological target: T4, cynomolgus monkey FcγRIIIaS extracellular domain, His-tagged (cynomolgus monkey, UniProt A3RFZ7 21-206 (rhesus entry))
T4 construct: also called cyno FcgRIIIaS; cynoFcγRIIIaS; not shown: His-tag added to the C-terminus
Procedure: as §1, §2

[5] = biological target: T5, human FcγRIIb extracellular domain, His-tagged (human, UniProt P31994 43-217)
T5 construct: also called human FcgRIIb; not shown: His-tag added to the C-terminus
T5 sequence: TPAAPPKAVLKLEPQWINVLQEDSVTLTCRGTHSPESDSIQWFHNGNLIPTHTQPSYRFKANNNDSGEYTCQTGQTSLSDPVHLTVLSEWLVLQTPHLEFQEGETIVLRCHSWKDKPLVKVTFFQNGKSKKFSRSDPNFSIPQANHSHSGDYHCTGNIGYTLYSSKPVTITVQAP
Procedure: as §1, §2

[6] = biological target: T6, human FcγRIIaH extracellular domain, His-tagged (human, UniProt P12318 34-217)
T6 construct: also called human FcgRIIaH; FcγRIIa (type H); not shown: His-tag added to the C-terminus
T6 sequence: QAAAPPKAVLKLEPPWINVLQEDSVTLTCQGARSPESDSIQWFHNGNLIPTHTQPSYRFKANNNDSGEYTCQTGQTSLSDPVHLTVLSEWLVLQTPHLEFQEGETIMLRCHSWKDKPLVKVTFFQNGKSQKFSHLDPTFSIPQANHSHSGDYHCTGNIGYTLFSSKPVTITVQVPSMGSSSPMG
Procedure: as §1, §2

[7] = biological target: T7, cynomolgus monkey FcγRIIb extracellular domain, His-tagged (cynomolgus monkey)
T7 construct: also called cyno FcgRIIb; cynoFcγRIIb; not shown: His-tag added to the C-terminus
T7 chain: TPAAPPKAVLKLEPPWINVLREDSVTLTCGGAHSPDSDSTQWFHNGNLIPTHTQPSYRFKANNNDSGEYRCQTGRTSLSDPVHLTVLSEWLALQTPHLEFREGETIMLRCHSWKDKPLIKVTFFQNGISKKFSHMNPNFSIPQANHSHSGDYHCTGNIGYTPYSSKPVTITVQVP
Procedure: as §1, §2

T1 sequence (P08637 17-208 F176V): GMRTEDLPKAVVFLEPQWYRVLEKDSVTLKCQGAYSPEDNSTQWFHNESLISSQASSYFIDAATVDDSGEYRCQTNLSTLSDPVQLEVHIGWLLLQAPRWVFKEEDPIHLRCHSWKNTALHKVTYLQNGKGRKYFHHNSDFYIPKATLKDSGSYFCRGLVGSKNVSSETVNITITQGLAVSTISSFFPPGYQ
T4 sequence (A3RFZ7 21-206): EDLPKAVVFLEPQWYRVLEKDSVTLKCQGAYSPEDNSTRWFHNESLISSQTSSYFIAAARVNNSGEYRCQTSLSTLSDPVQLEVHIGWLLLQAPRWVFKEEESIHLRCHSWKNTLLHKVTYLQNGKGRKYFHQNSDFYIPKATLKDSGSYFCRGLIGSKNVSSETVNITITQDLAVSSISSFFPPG

B1: M103205H795-MY267/M103202L889-SK1 (antibody, human IgG1, kappa)
heavy: QVTLKESGPVLVKPTETLTLTCTVSGIDLSHDDISWVRQAPGKGLEWVGIISYAGSTYYASWAKGRLTISKDTSKNQVVLTMTNMDPVDTATYYCARGVPAYSHGGDLWGQGTLVTVSSASTKGPSVFPLAPSSKSTSGGTAALGCLVKDYFPEPVTVSWNSGALTSGVHTFPAVLQSSGLYSLSSVVTVPSSSLGTQTYICNVNHKPSNTKVDKKVEPKSCDKTHTCPPCPAPELLIGPSVFLFPPKPKDTLMISRTPEVTCVVVDVSDEDPEVKFNWYVDGVEVHNAKTKPREEQYNSTYRVVSVLTVLHQDWLNGKEYKCKVSNKALPKPIEKTISKAKGQPREPQVYTLPPSREEMTKNQVSLTCLVKGFYPSDIAVEWESNGQPENNYKTTPPVLDSDGSFFLYSKLTVDKSRWQQGNVFSCSVMHEALHNHYTQKSLSLSP
light: DIVMTQSPATLSLSPGERATLSCTSSQSVYHANWLSWFQQKPGQPPKLLIYWASTLAYGVPSRFSGSGSGTDFTLTISSLQPEDAATYYCAGGYGGGRYAFGQGTKVEIKRTVAAPSVFIFPPSDEQLKSGTASVVCLLNNFYPREAKVQWKVDNALQSGNSQESVTEQDSKDSTYSLSSTLTLSKADYEKHKVYACEVTHQGLSSPVTKSFNRGEC
notes: copies: 2 + 2
What does the source list for B1?
Kd [1]: 15 µM; Kd [2]: 7.3 µM; Kd [3]: 24 µM; Kd [4]: 2.7 µM; Kd [5]: 5.7 µM; Kd [6]: 0.2 µM; Kd [7]: 0.84 µM
